According to US20260274961A1 (BRIGHAM AND WOMEN S HOSPITAL, published 2026):
Substitutions are numbered along the chain they refer to.

Legend:
[1] = target: site-specific biotinylated monomeric human CD32a^H (FcγRIIa, histidine-131 variant), recombinant (human) (UniProt P12318); test: SPR (Biacore 3000), steady state, monomeric IgG, pH 7.4
[2] = target: site-specific biotinylated monomeric human CD32a^R (FcγRIIa, arginine-131 variant), recombinant (human) (UniProt P12318); test: as above
[3] = target: site-specific biotinylated monomeric human CD32a^H (FcγRIIa, histidine-131 variant), recombinant (human) (UniProt P12318); test: SPR steady state (refers to Table 6)
[4] = target: His-tagged soluble mouse FcRn (mFcRn), recombinant (mouse) (UniProt Q61559); test: method not stated; neutral pH
[5] = target: T1, His-tagged soluble human FcRn (hFcRn), recombinant (human, UniProt P55899 24-290; P61769 21-119, limits assumed); test: bridging ELISA at pH 5.5: hFcRn/ALP-nanobody reporter complex at one concentration on captured CD32a^H without IgG
T1 construct: Made in an insect cell system 'as described previously'; also called recombinant hFcRn; hFcRn reporter complex (with ALP-conjugated hFcRn-specific nanobody)
T1 sequence (P55899 24-290 limits assumed, chain 1 of 2): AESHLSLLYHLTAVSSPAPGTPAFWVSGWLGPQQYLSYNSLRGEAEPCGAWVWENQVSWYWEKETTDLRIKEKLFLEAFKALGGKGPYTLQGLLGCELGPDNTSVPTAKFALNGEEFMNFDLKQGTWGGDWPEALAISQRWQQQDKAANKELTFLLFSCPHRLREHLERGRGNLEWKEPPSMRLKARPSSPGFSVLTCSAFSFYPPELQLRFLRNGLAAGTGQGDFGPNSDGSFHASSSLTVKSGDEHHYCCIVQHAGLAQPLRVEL
T1 sequence (P61769 21-119 limits assumed, chain 2 of 2): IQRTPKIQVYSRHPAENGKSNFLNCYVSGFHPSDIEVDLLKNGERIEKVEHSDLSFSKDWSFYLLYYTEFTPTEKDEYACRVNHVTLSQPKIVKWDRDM

[6] = target: T2, His-tagged soluble mouse FcRn (mFcRn), recombinant (mouse, UniProt Q61559 22-290; P01887 21-119, limits assumed); test: SPR at pH 5.5: mFcRn injected alone over CD32a^H captured on neutravidin (variant as titled on the sheet); the concentration is not printed on the sheet
T2 construct: Made in an insect cell system 'as described previously'; also called recombinant mFcRn
T2 sequence (looked up): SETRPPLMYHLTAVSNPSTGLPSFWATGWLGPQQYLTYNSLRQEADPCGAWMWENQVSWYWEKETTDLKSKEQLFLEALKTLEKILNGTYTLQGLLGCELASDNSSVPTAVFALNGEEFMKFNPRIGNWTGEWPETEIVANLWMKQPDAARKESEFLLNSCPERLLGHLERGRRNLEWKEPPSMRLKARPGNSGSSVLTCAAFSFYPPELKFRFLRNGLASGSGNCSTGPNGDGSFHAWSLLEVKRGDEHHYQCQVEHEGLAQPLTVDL
T2 sequence (b2m, looked up): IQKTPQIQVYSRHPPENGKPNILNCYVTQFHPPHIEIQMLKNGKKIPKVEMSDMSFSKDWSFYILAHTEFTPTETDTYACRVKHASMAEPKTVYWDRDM
Experimental: (§1) Recombinant C-terminus-biotinylated CD32a variants were captured on neutravidin-coated plates. Analyte(s) were then injected as indicated and specified in the material and methods. […] Recombinant C-terminus-biotinylated CD32a variants were captured on neutravidin amine-coupled CM5 sensor chips. Analyte(s) were then injected as indicated and specified in the material and methods.
(§2) The cDNAs encoding for CD32a^R and CD32a^H were subcloned into a pcDNA3.1 vector and sequences verified by DNA sequencing. […] To obtain clones with similar expression of CD32a^R or CD32a^H, transfected MDCK-II, HEK293T^H2-Kb, and RAW264.7 were processed by fluorescence-activated cell sorting (FACS; BD FACSAria II™). SPR and ELISA CD32a-IgG-FcRn binding SPR analysis was performed using a Biacore 3000™ instrument (GE Healthcare™). CM5™ sensor chips (GE Healthcare™) were coupled with neutrAvidin (Pierce™) (~1000 RU) using amine coupling chemistry, by injecting 5 g/ml in 10 mM sodium acetate, pH 4.5 (GE Healthcare™) at 25° C.).

[7] = target: T1, His-tagged soluble human FcRn (hFcRn), …; test: bridging ELISA at pH 5.5: hFcRn/ALP-nanobody reporter complex at one concentration on captured CD32a^R without IgG
[8] = target: T2, His-tagged soluble mouse FcRn (mFcRn), …; test: SPR at pH 5.5: mFcRn injected alone over CD32a^R captured on neutravidin (variant as titled on the sheet); the concentration is not printed on the sheet
Experimental: as §1, §2

Which results are given for “anti-NIP chimeric IgG with wild type human IgG1 Fc (hIgG1^WT) (antibody)”?
Kd [1]: 1300 nM; Kd [2]: 2000 nM

Which Kd [1] does the source give for “anti-NIP hIgG1-I253A/H310A/H435A (hIgG1^IHH) (from UniProt P01857 1-330) (antibody)” here?
Its Kd is 4800 nM.

For “anti-NIP hIgG1-M252Y/S254T/T256E/H433K/N434F (hIgG1^MST/HN) (from UniProt P01857 1-330) (antibody)”, which decrease of binding against hIgG1^WT [3] is on record?
The decrease of binding against hIgG1^WT was 50%.

What about the Kd [1] of the same molecule?
Its Kd is 2800 nM.

What about the Kd [4] of the same molecule?
Its Kd is 7.4 nM.

B1: site-specific biotinylated monomeric human CD32a^H (FcγRIIa, histidine-131 variant), recombinant (receptor, UniProt P12318 34-218, looked up)
chain: QAAAPPKAVLKLEPPWINVLQEDSVTLTCQGARSPESDSIQWFHNGNLIPTHTQPSYRFKANNNDSGEYTCQTGQTSLSDPVHLTVLSEWLVLQTPHLEFQEGETIMLRCHSWKDKPLVKVTFFQNGKSQKFSHLDPTFSIPQANHSHSGDYHCTGNIGYTLFSSKPVTITVQVPSMGSSSPMGI
modifications: C-terminus biotinylated
notes: Bought recombinant protein; also called CD32a-H131; C-terminus biotinylated CD32a^H
Which results are given for B1?
binding result [5]: no binding; binding result [6]: no binding

B2: site-specific biotinylated monomeric human CD32a^R (FcγRIIa, arginine-131 variant), recombinant (receptor, UniProt P12318 34-218, looked up)
chain: B1 chain with H134R
modifications: C-terminus biotinylated
notes: Bought recombinant protein; The substitution is written against the histidine-131 form; also called CD32a-R131; C-terminus biotinylated CD32a^R
Does B2 bind [7]?
Result: no binding

Does B2 bind [8]?
Result: no binding
